For 26 molecules, OD 450 nm, EC50 and koff results are on record in US20200140532A1.

Experiment [1] concerns the target recombinant cynomolgus Aggrecan G1-IGD-G2 (cynomolgus). The experiment can be described thus: periplasmic extract ELISA.
For experiment [2] the target is unchanged. The experiment can be described thus: ELISA on recombinant G1-IGD-G2.
Experiment [3] has the same target. The experiment can be described thus: SPR (ProteOn), off-rate only indicative.

B1: C0101PMP604B05 (VHH, not shown: large carriers)
VHH: DVQLVESGGGLVQPGGSLRLSCVASGRTFSIYTMAWFRQAPGKEREFVAAISWSSGRTYYADSVKGRFTISRDNSKNTVYLQMNSLRPEDTAVYYCTAYTGPRSGYDYWGQGTLVTVSS
As for B1, the OD 450 nm in experiment [1] amounted to 2.04 OD 450 nm.

B2: C0101PMP115B08 (VHH, not shown: large carriers)
VHH: KVQLVESGGGLVQPGGSLRLSCAASGFTFSMYAMKWVRQAPGKGLEWVSGINSSGGRTNYAGSVKGRFTISRDNAKNTLYLQMNSLKPEDTAVYYCATDFLGGRNSRGQGTQVTVSS
B2: in experiment [1], the OD 450 nm was determined as 1.18 OD 450 nm.

B3: C01010060 (606A07-ALB26) (VHH, not shown: small tags and cut ends)
VHH: DVQLVESGGGLVQPGGSLRLSCVASGRTFSIYGMGWFRQAPGKEREFVAAINGGSRTYYADSVKGRFTISRDNSKNTVYLQMNSLRPEDTAVYYCAADRSGYGTSLDWWYDYWGQGTLVTVSS
Regarding B3, the EC50 (commonly the concentration at which the effect is half-maximal) in experiment [2] was determined as 5.4 nM. Moreover, the off-rate (koff) (as a rule, the first-order rate constant of dissociation) in experiment [3] turned out to be 0.02 s⁻¹.

B4: C01010113 (ALB26-606A07-606A07) (VHH, not shown: small tags and cut ends)
VHH 1: DVQLVESGGGLVQPGGSLRLSCVASGRTFSIYGMGWFRQAPGKEREFVAAINGGSRTYYADSVKGRFTISRDNSKNTVYLQMNSLRPEDTAVYYCAADRSGYGTSLDWWYDYWGQGTLVTVSS
VHH 2: DVQLVESGGGLVQPGGSLRLSCVASGRTFSIYGMGWFRQAPGKEREFVAAINGGSRTYYADSVKGRFTISRDNSKNTVYLQMNSLRPEDTAVYYCAADRSGYGTSLDWWYDYWGQGTLVTVSS
As to B4, the concentration giving a half-maximal response (EC50) in experiment [2] was found to be 0.3 nM.

B5: C0101PMP606A07 (VHH, not shown: large carriers)
VHH: DVQLVESGGGLVQPGGSLRLSCVASGRTFSIYGMGWFRQAPGKEREFVAAINGGSRTYYADSVKGRFTISRDNSKNTVYLQMNSLRPEDTAVYYCAADRSGYGTSLDWWYDYWGQGTLVTVSS
B5: the OD 450 nm in experiment [1] is 2.41 OD 450 nm.

B6: C0101PMP112A01 (VHH, not shown: large carriers)
VHH: EVQLVESGGGLVQTGGSLRLSCVASGRAFSNYIMGWFRQAPGKERDFVAAINWNGVTTHYTDSVKGRFTISRDNAKSTSYLQMDSLKPDDTAVYFCAARGTVYSRTYGVSEEGYMYWGQGTQVTVSS
For B6, in experiment [1], the OD 450 nm is 2.5 OD 450 nm.

B7: C0101PMP604G09 (VHH, not shown: large carriers)
VHH: DVQLVESGGGLVQPGGSLRLSCVASGRTFSSYAMGWFRQAPGKEREFVAAITWSSATTYYADSVKGRFTISRDNSKNTVYLQMNSLRPEDTAVYYCAAARIPVGRRSENWDYWGQGTLVTVSS
Consider B7, for which the OD 450 nm in experiment [1] was 1.57 OD 450 nm.

B8: C0101PMP606A05 (VHH, not shown: large carriers)
VHH: DVQLVESGGGLVQPGGSLRLSCVASGRTFSIYTMGWFRQAPGKEREFVAAISWSGGRTYYADSVKGRFTISRDNSKNTVYLQMNSLRPEDTAVYYCTAYTGRSYGSYDYWGQGTLVTVSS
Turning to B8, in experiment [1], the OD 450 nm is 1.24 OD 450 nm.

B9: C0101PMP112A03 (VHH, not shown: large carriers)
VHH: EVQLVESGGGLVQPGGSLRLSCAASGSIFSNRFMYWYRQAPGKQRELVASITLSGSTNYADSVKGRFTISRDNAKNTVYLQMNSLKPEDTAVYYCNTFLQNSFYWGQGTQVTVSS
For the molecule B9, the OD 450 nm in experiment [1] turned out to be 2.36 OD 450 nm.

B10: C01010097 (608A05-ALB26) (VHH, not shown: small tags and cut ends)
VHH: DVQLVESGGGLVQPGGSLRLSCAASGRTFSTYTMGWFRQAPGKEREFVAAISWSGGTTYYADSVKGRFTISRDNSKNTVYLQMNSLRPEDTAVYYCAARPRYYYYSLYSYDYWGQGTLVTVSS
Take B10: in experiment [2], the EC50 is 0.21 nM. Besides, in experiment [3], the koff is 0.0018 s⁻¹.

B11: C0101PMP608A05 (VHH, not shown: large carriers)
VHH: DVQLVESGGGLVQPGGSLRLSCAASGRTFSTYTMGWFRQAPGKEREFVAAISWSGGTTYYADSVKGRFTISRDNSKNTVYLQMNSLRPEDTAVYYCAARPRYYYYSLYSYDYWGQGTLVTVSS
Consider B11, for which, in experiment [1], the OD 450 nm was determined as 2.48 OD 450 nm.

B12: C01010109 (ALB26-608A05-608A05) (VHH, not shown: small tags and cut ends)
VHH 1: DVQLVESGGGLVQPGGSLRLSCAASGRTFSTYTMGWFRQAPGKEREFVAAISWSGGTTYYADSVKGRFTISRDNSKNTVYLQMNSLRPEDTAVYYCAARPRYYYYSLYSYDYWGQGTLVTVSS
VHH 2: DVQLVESGGGLVQPGGSLRLSCAASGRTFSTYTMGWFRQAPGKEREFVAAISWSGGTTYYADSVKGRFTISRDNSKNTVYLQMNSLRPEDTAVYYCAARPRYYYYSLYSYDYWGQGTLVTVSS
Regarding B12, the EC50 in experiment [2] amounted to 0.091 nM.

B13: C0101PMP117G09 (VHH, not shown: large carriers)
VHH: EVQLVESGGGSALPGGSLRLSCAASGITFSSRYMRWYRQAPGRQRELVAAISSGGRTDYVDSVRGRFTLSINNAKNTVYLQMNDLKPEDTAVYYCYRPRMYVDGTYEKELWGQGTLVTVSS
Regarding B13, in experiment [1], the OD 450 nm came out at 2.21 OD 450 nm.

B14: C0101PMP117D05 (VHH, not shown: large carriers)
VHH: KVQLVESGGGLVQAGGSLRLSCAASRRTFNMMGWFRQAPGKEREFVAYITWNGGDTRYAESVKGRFTVSRDDVKNTMALQMNRLDPLDTAVYYCGVRIHGSNWSTKADDYDNWGQGTQVTVSS
In the case of B14, the OD 450 nm in experiment [1] turned out to be 2.12 OD 450 nm.

B15: C0101PMP609C09 (VHH, not shown: large carriers)
VHH: DVQLVESGGGLVQPGGSLRLSCAASGTIFSINVMGWYRQAPGKEREFVAAITTGGRTNYADSVKGRFTISRDNSKNTVYLQMNSLRPEDTAVYYCNAEVTTGWVGYSWYDYWGQGTMVTVSS
Take B15: the OD 450 nm in experiment [1] was 1.83 OD 450 nm.

B16: C0101PMP113A01 (VHH, not shown: large carriers)
VHH: EVQLVESGGGLVQPGGSLRLSCSASGFTFSGSWMFWVRQAPGKDYEWVASINSSGGRTYYDDSVKGRFTISRDSAKNTLYLEMNNLKPEDTALYFCARSPRVGSWGQGTQVTVSS
B16: the OD 450 nm in experiment [1] was 2.57 OD 450 nm.

B17: C0101PMP604G01 (VHH, not shown: large carriers)
VHH: DVQLVESGGGLVQPGGSLRLSCAASGRTFSSYTMGWFRQAPGKEREFVAAISWSGRTTYYADSVKGRFTISRDNSKNTVYLQMNSLRPEDTAVYYCAAYRRVRYTNLEVWDYWGQGTLVTVSS
Regarding B17, in experiment [1], the OD 450 nm was 1.25 OD 450 nm.

B18: C01010046 (601E08-ALB26) (VHH, not shown: small tags and cut ends)
VHH: DVQLVESGGGLVQPGGSLRLSCTASGRTFSSYAVGWFRQAPGKEREFVAAISRSGRSTYYADSVKGRFTISRDNSKNTVYLQMNSLRPEDTAVYYCAAGLSYYSPHAYYDYWGQGTLVTVSS
B18: the EC50 in experiment [2] stood at 6.8 nM. In experiment [3], the off-rate (koff) worked out at 0.0031 s⁻¹.

B19: C0101PMP601E08 (VHH, not shown: large carriers)
VHH: DVQLVESGGGLVQPGGSLRLSCTASGRTFSSYAVGWFRQAPGKEREFVAAISRSGRSTYYADSVKGRFTISRDNSKNTVYLQMNSLRPEDTAVYYCAAGLSYYSPHAYYDYWGQGTLVTVSS
Turning to B19, the OD 450 nm in experiment [1] worked out at 1.32 OD 450 nm.

B20: C01010094 (604F02-ALB26) (VHH, not shown: small tags and cut ends)
VHH: DVQLVESGGGLVQPGGSLRLSCAASGRTFSSYTMGWFRQAPGKEREFVAAISWSGGRTYYADSVKGRFTISRDNSKNTVYLQMNSLRPEDTAVYYCAAYRRRRASSNRGLWDYWGQGTLVTVSS
For B20, in experiment [2], the EC50 was 2.2 nM. The koff in experiment [3] turned out to be 0.15 s⁻¹.

B21: C01010106 (ALB26-604F02-604F02) (VHH, not shown: large carriers; small tags and cut ends)
VHH 1: DVQLVESGGGLVQPGGSLRLSCAASGRTFSSYTMGWFRQAPGKEREFVAAISWSGGRTYYADSVKGRFTISRDNSKNTVYLQMNSLRPEDTAVYYCAAYRRRRASSNRGLWDYWGQGTLVTVSS
VHH 2: DVQLVESGGGLVQPGGSLRLSCAASGRTFSSYTMGWFRQAPGKEREFVAAISWSGGRTYYADSVKGRFTISRDNSKNTVYLQMNSLRPEDTAVYYCAAYRRRRASSNRGLWDYWGQGTLVTVSS
Take B21: in experiment [2], the concentration for a half-maximal effect (EC50) is 0.068 nM.

B22: C0101PMP604F02 (VHH, not shown: large carriers)
VHH: DVQLVESGGGLVQPGGSLRLSCAASGRTFSSYTMGWFRQAPGKEREFVAAISWSGGRTYYADSVKGRFTISRDNSKNTVYLQMNSLRPEDTAVYYCAAYRRRRASSNRGLWDYWGQGTLVTVSS
On to B22, for which, in experiment [1], the OD 450 nm is 1.37 OD 450 nm.

B23: C01010054 (114F08-ALB26) (VHH, not shown: small tags and cut ends)
VHH: EVQLVESGGGLVQAGGSLRLSCAASGSTFIINVVRWYRRTPGKQRELVATISSGGNANYVDSVRGRFSISRDGAKNAVDLQMNGLKPEDTAVYYCNVPTTHYGGVYYGPYWGQGTQVTVSS
With B23, the EC50 in experiment [2] amounted to 4.4 nM. Also, the dissociation rate constant (koff) in experiment [3] worked out at 0.0069 s⁻¹.

B24: C01010118 (ALB26-114F08-114F08) (VHH, not shown: small tags and cut ends)
VHH 1: EVQLVESGGGLVQAGGSLRLSCAASGSTFIINVVRWYRRTPGKQRELVATISSGGNANYVDSVRGRFSISRDGAKNAVDLQMNGLKPEDTAVYYCNVPTTHYGGVYYGPYWGQGTQVTVSS
VHH 2: EVQLVESGGGLVQAGGSLRLSCAASGSTFIINVVRWYRRTPGKQRELVATISSGGNANYVDSVRGRFSISRDGAKNAVDLQMNGLKPEDTAVYYCNVPTTHYGGVYYGPYWGQGTQVTVSS
Regarding B24, the concentration giving a half-maximal response (EC50) in experiment [2] came to 0.076 nM.

B25: C0101PMP114F08 (VHH, not shown: large carriers)
VHH: EVQLVESGGGLVQAGGSLRLSCAASGSTFIINVVRWYRRTPGKQRELVATISSGGNANYVDSVRGRFSISRDGAKNAVDLQMNGLKPEDTAVYYCNVPTTHYGGVYYGPYWGQGTQVTVSS
As to B25, in experiment [1], the OD 450 nm was 2.32 OD 450 nm.

B26: C0101PMP102G11 (VHH, not shown: large carriers)
VHH: EVQLVESGGGLVQAGGSLRLSCAASGRSFSSYAMGWFRQAPGKEREFVSIISWSGGSTVYADSVKGRFTISRDNAKNTVYLQMNSLKPEDTAIYYCAAGRLYRATPRPADFGSWGQGTQVTVSS
Turning to B26, in experiment [1], the OD 450 nm came out at 0.6 OD 450 nm.
